Here are results for 1 molecule from PMC3037348, “Epstein-Barr Virus Nuclear Antigen 3C Facilitates G1-S Transition by Stabilizing and Enhancing the Function of Cyclin D1” (PLoS Pathogens, 2011).

This assay has as its target flag-tagged Cyclin D1 (UniProt P24385 1-295). Kind of assay: cell-based or functional assay.

Chain of flag-tagged Cyclin D1 (P24385 whole entry): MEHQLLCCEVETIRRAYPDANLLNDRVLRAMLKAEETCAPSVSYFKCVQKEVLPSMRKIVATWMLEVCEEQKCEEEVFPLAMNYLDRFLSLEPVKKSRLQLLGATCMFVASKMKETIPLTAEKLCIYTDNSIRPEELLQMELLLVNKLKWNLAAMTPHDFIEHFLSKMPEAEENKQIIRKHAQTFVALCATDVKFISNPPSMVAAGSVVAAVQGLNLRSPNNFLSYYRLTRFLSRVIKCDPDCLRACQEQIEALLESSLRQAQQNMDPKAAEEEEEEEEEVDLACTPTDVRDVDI

B1: myc-tagged full-length EBNA3C (residues 1-992) (natural protein)
chain: MESFEGQGDSRQSPDNERGDNVQTTGEHDQDPGPGPPSSGASERLVPEESYSRDQQPWGQSRGDENRGWMQRIRRRRRRRAALSGHLLDTEDNVPPWLPPHDITPYTARNIRDAACRAVKQSHLQALSNLILDSGLDTQHILCFVMAARQRLQDIRRGPLVAEGGVGWRHWLLTSPSQSWPMGYRTATLRTLTPVPNRVGADSIMLTATFGCQNAARTLNTFSATVWTPPHAGPREQERYAREAEVRFLRGKWQRRYRRIYDLIELCGSLHHIWQNLLQTEENLLDFVRFMGVMSSCNNPAVNYWFHKTIGNFKPYYPWNAPPNENPYHARRGIKEHVIQNAFRKAQIQGLSMLATGGEPRGDATSETSSDEDTGRQGSDVELESSDDELPYIDPNMEPVQQRPVMFVSRVPAKKPRKLPWPTPKTHPVKRTNVKTSDRSDKAEAQSTPERPGPSEQSSVTVEPAHPTPVEMPMVILHQPPPVPKPVPVKPTPPPSRRRRGACVVYDDDVIEVIDVETTEDSSSVSQPNKPHRKHQDGFQRSGRRQKRAAPPTVSPSDTGPPAVGPPAAGPPAAGPPAAGPPAAGPPAAGPPAAGPRILAPLSAGPPAAGPHIVTPPSARPRIMAPPVVRMFMRERQLPQSTGRKPQCFWEMRAGREITQMQQEPSSHLQSATQPTTPRPSWAPSVCALSVMDAGKAQPIESSHLSSMSPTQPISHEEQPRYEDPDAPLDLSLHPDVAAQPAPQAPYQGYQEPPAPQAPYQGYQEPPPPQAPYQGYQEPPAHGLQSSSYPGYAGPWTPRSQHPCYRHPWAPWSQDPVHGHTQGPWDPRAPHLPPQWDGSAGHGQDQVSQFPHLQSETGPPRLQLSLVPLVSSSAPSWSSPQPRAPIRPIPTRFPPPPMPLQDSMAVGCDSSGTACPSMPFASDYSQGAFTPLDINATTPKRPRVEESSHGPARCSQATAEAQEILSDNSEISVFPKDAKQTDYDASTESELD
For B1, the “in vitro kinase activity of flag-Cyclin D1/CDK6 immunoprecipitates toward histone H1, HEK 293T cells transfected with increasing amounts of myc-EBNA3C vector (0, 5, 15 µg)” value came out at 1.6 fold and the “in vitro kinase activity of flag-Cyclin D1/CDK6 immunoprecipitates toward recombinant GST-pRb (residues 792-928), HEK 293T cells transfected with increasing amounts of myc-EBNA3C vector (0, 5, 15 µg)” value came out at 2.3 fold.
